According to article PMC6891085:
Read-outs that look alike come from different tables or passages of the source.

Experiments:
Assay in all cases: co-sedimentation
[1] = molecular target: taxol-stabilized microtubules (MTs) of porcine brain tubulin (porcine) (UniProt P02550)
[2] = molecular target: taxol-stabilized microtubules (MTs) of porcine brain tubulin (porcine) (UniProt P02550); remark: listed apart in the source
[3] = molecular target: subtilisin-treated MTs (s-MTs) (porcine) (UniProt P02550)

Chain of UniProt P02550 (P02550 whole entry): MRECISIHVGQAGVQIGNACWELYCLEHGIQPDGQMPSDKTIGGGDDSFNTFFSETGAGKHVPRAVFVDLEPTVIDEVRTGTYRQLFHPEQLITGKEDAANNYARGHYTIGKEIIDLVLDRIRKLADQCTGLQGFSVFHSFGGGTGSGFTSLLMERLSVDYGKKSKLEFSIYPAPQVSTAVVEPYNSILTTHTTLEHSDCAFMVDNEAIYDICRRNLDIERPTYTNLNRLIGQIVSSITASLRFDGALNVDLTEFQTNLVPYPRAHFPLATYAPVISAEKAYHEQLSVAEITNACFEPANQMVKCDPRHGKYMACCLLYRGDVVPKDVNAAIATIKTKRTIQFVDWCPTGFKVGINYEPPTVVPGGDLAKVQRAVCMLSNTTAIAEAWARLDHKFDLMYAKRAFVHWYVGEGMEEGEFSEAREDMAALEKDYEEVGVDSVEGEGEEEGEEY

“Abl2 with MBP cleaved off (from UniProt Q4JIM5 74-1182) (enzyme)” was tested, and the Kd [1] was 170 nM.
Substance “Abl2-557-C (from UniProt Q4JIM5 557-1182) (domain or fragment)” has a Kd [1] of 700 nM.
“Abl2-N-688 (from UniProt Q4JIM5 74-688) (domain or fragment)” was tested, and the Kd [1] was 240 nM.
With “MBP-tagged Abl2 (from UniProt Q4JIM5 74-1182) (enzyme)” the Kd [2] was 360 nM, the Kd [3] was over 3000 nM and the Kd [1] was 210 nM.
With “MBP-tagged Abl2-557-688 (from UniProt Q4JIM5 557-688) (domain or fragment)” the Kd [1] was 1300 nM.
